The supplement of paper PMC12764529
± gives the half width of the 95% confidence interval.

How the values were obtained:
[1] = folding stability dG unfold from chymotrypsin proteolysis; higher = more stable
How it was run: (§1)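 Designed mini-proteins with no cysteine and under 80 residues were kept only if AlphaFold2 dimer inter-PAE was above 15. In a PA-tagged cDNA display construct, they were digested with trypsin and chymotrypsin and then sequenced. K50 was inferred by Bayesian fitting of counts, and unfolding free energy was derived per protease or combined against a sequence-predicted unfolded-state K50 and a shared folded-state K50.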

[2] = folding stability dG unfold from trypsin proteolysis; higher = more stable
How it was run: as §1

[3] = folding stability dG unfold (combined trypsin and chymotrypsin); higher = more stable
How it was run: as §1

Sequence: SAMKVTVKPTTLPDGTTVVVTTEPDKIVAYGTYNGDSFTSESLPDGTVVTTAKKPGGVLVTSPTDPNLESAG [r14_213_JUSTAS]
- folding stability dG unfold [1]: 0.112 ± 0.14 kcal/mol
- folding stability dG unfold [2]: 0.26 ± 0.02 kcal/mol
- folding stability dG unfold [3]: 0.265 ± 0.074 kcal/mol

Sequence: SAMKVYEIPIEIPISKYKPSDIIAALKKALDKLNIPFPEEIIKELTIISIKTGGNISTAIKTLLENGLLSAG [r14_364_TrMRF]
- folding stability dG unfold [1]: 1.29 ± 0.096 kcal/mol
- folding stability dG unfold [2]: 1.69 ± 0.12 kcal/mol
- folding stability dG unfold [3]: 1.56 ± 0.17 kcal/mol

Sequence: SAMKVYIAASSPEEIEGWIEEARKAGIDGPELIFVSPDDRVYKAEIIPNTGEVKIEPVKPIEELLKELPSAG [r14_913_TrMRF]
- folding stability dG unfold [1]: 0.788 ± 0.4 kcal/mol
- folding stability dG unfold [2]: 1.09 ± 0.11 kcal/mol
- folding stability dG unfold [3]: 0.955 ± 0.34 kcal/mol

Sequence: SAMKVYKAKVTIVDEEGNLLDEIELEFETEEELKEKVLEELGVSEEEIVEIELSPEVSEEEFEKKLKLESAG [r14_852_JUSTAS]
- folding stability dG unfold [1]: 0.776 ± 0.15 kcal/mol
- folding stability dG unfold [2]: -0.425 ± 0.25 kcal/mol
- folding stability dG unfold [3]: 0.347 ± 0.14 kcal/mol

Sequence: SAMLEEVEERAREIAERLREEYPDVEEFTVELELPLPDGRFLRVTVTIRRERDDEGDTFEVEVDVEEVDSAG [r14_788_TrMRF]
- folding stability dG unfold [1]: 4.91 ± 0.13 kcal/mol
- folding stability dG unfold [2]: 3.47 ± 0.13 kcal/mol
- folding stability dG unfold [3]: 4.46 ± 0.095 kcal/mol

Sequence: SAMLKLEITLPDGTVVEVEIPLERPVPPAGEEEALAAAEAVREAVAAALGLEDAEVTMEVEEVSPEELLSAG [r14_378_JUSTAS]
- folding stability dG unfold [1]: 1.03 ± 0.051 kcal/mol
- folding stability dG unfold [2]: 1.65 ± 0.12 kcal/mol
- folding stability dG unfold [3]: 1.41 ± 0.2 kcal/mol

Sequence: SAMLPSIIIAKAKEAIEKSGKPVPVVIKIPVYKKENGPPVSLEKAKEIFEKLKEAFPDVPIIIELEEPESAG [r14_636_TrMRF]
- folding stability dG unfold [1]: 0.539 ± 0.034 kcal/mol
- folding stability dG unfold [2]: 0.875 ± 0.011 kcal/mol
- folding stability dG unfold [3]: 0.766 ± 0.048 kcal/mol

Sequence: SAMLTILSVETHTLPNGEEIVTVTLKTPDLETLDALLAELGLTGTRDPDDPQVVTITTSREKVQEIKEKSAG [r14_777_JUSTAS]
- folding stability dG unfold [1]: 4.71 ± 0.2 kcal/mol
- folding stability dG unfold [2]: 3.34 ± 0.14 kcal/mol
- folding stability dG unfold [3]: 4.57 ± 0.3 kcal/mol

Sequence: SAMMKAEIVEIKFDPKTKKLTIKFPDGSKLEIKPGETIKIKIKVTVFNEETGKLEEKEITLTLKLPEGLSAG [r14_366_TrROS_Hall]
- folding stability dG unfold [1]: 2.96 ± 0.1 kcal/mol
- folding stability dG unfold [2]: 2.31 ± 0.27 kcal/mol
- folding stability dG unfold [3]: 2.91 ± 0.43 kcal/mol

Sequence: SAMPEKRFYTYEIPIPPGFKADEPFVGTVTLEEKTLPIKIGSIPDVPPDATVRLTVDLDTAEFRVELLPSAG [r14_554_TrMRF]
- folding stability dG unfold [1]: 1.3 ± 0.087 kcal/mol
- folding stability dG unfold [2]: 0.91 ± 0.1 kcal/mol
- folding stability dG unfold [3]: 1.16 ± 0.2 kcal/mol

Sequence: SAMRIEIVRDPETGELVVRVVLPREEAEEAAEELARRLAEAGLEVEVKVVRIEETDGETRVVVEIKVKPSAG [r14_345_TrROS_Hall]
- folding stability dG unfold [1]: 2.88 ± 0.061 kcal/mol
- folding stability dG unfold [2]: 3.74 ± 0.11 kcal/mol
- folding stability dG unfold [3]: 3.3 ± 0.1 kcal/mol

Sequence: SAMRIVVPYRETLRLTGLPEDTPLEEFRERFERIFRRLMERGVRPVRIEIYEIGDERYIVVEIETPGGASAG [r14_158_TrMRF]
- folding stability dG unfold [1]: 4.042 ± 0.017 kcal/mol
- folding stability dG unfold [2]: 2.907 ± 0.019 kcal/mol
- folding stability dG unfold [3]: 3.62 ± 0.041 kcal/mol

Sequence: SAMSEKDMEPIETFELPETNVKIELYYNKKTKKYVIKIKNKKTKKTKTIVIKSKDGKITLEELKKLIKKSAG [r14_948_TrROS_Hall]
- folding stability dG unfold [1]: 3.42 ± 0.077 kcal/mol
- folding stability dG unfold [2]: 2.93 ± 0.24 kcal/mol
- folding stability dG unfold [3]: 3.61 ± 0.31 kcal/mol

Sequence: SAMSLEDMTPEELEELVKELIEKLREELEKEGKTIKPGETIEIEIEVKGKKLKIKITVDKDGNIKIEVESAG [r14_501_TrROS_Hall]
- folding stability dG unfold [1]: 3.03 ± 0.084 kcal/mol
- folding stability dG unfold [2]: 2.87 ± 0.2 kcal/mol
- folding stability dG unfold [3]: 2.97 ± 0.092 kcal/mol

Sequence: SAMSVKTYSSTSVDPKTGKTYTTTTTVTPKPEPPWLVTTTTYLVDPATGTTTLLSTTTTTLDPNDPTLLSAG [r14_939_JUSTAS]
- folding stability dG unfold [1]: 2.67 ± 0.11 kcal/mol
- folding stability dG unfold [2]: 2.11 ± 0.071 kcal/mol
- folding stability dG unfold [3]: 2.45 ± 0.084 kcal/mol

Sequence: SAMTKTETFTFDDVEITVTTTEVTLPNGEKKDVYTLTKYTVDPSTGTTTPSSKTFSSKEEMEAALKASLSAG [r14_500_JUSTAS]
- folding stability dG unfold [1]: 4.036 ± 0.04 kcal/mol
- folding stability dG unfold [2]: 3.6 ± 0.27 kcal/mol
- folding stability dG unfold [3]: 3.97 ± 0.16 kcal/mol

Sequence: SAMTLTLEFENLKDLTEEEIEEALKEAGLPGVKILGIKKTSEKWTITIAYDSSTPKEKIEAAIKKAVAESAG [r14_657_JUSTAS]
- folding stability dG unfold [1]: 4.64 ± 0.13 kcal/mol
- folding stability dG unfold [2]: 5.03 ± 0.35 kcal/mol
- folding stability dG unfold [3]: 4.56 ± 0.18 kcal/mol

Sequence: SAMTLTLEIELDGVRVRLEAELELVLNEDGSLELKLKLKIEVEPLPPPKEVEVEEEEEEVEEVEFLPEESAG [r14_341_TrROS_Hall]
- folding stability dG unfold [1]: 4.61 ± 0.28 kcal/mol
- folding stability dG unfold [2]: 3.82 ± 0.31 kcal/mol
- folding stability dG unfold [3]: 4.44 ± 0.26 kcal/mol

Sequence: SAMTTTTSVDPASGSSTVTTTEIIEKPAGKLPNGTKLPPVKVKKTTTTTYAPNGTKLSTTTTTTPVPLGSAG [r14_246_JUSTAS]
- folding stability dG unfold [1]: 0.67 ± 0.11 kcal/mol
- folding stability dG unfold [2]: 1.01 ± 0.064 kcal/mol
- folding stability dG unfold [3]: 0.874 ± 0.086 kcal/mol

Sequence: SAMTVTSSVTTQPVPDSSDTVTYTNITVTIGNQTVTYTETVTYSSTDPTLRTVTTLLPDGTTVTTTVPVGSA [r9_897_JUSTAS]
- folding stability dG unfold [1]: 2.6 ± 0.084 kcal/mol
- folding stability dG unfold [2]: 1.94 ± 0.1 kcal/mol
- folding stability dG unfold [3]: 2.18 ± 0.13 kcal/mol

Sequence: SAMVEVRIEYDEETGEIRIEVRAEEEGEELTEEEIEELARELAEELGLPVEIKEIRVEKAPEVEEVVLESAG [r14_556_TrROS_Hall]
- folding stability dG unfold [1]: 0.757 ± 0.1 kcal/mol
- folding stability dG unfold [2]: 1.05 ± 0.18 kcal/mol
- folding stability dG unfold [3]: 0.884 ± 0.3 kcal/mol

Sequence: SAMVLKVEEEPFPPNAKREVKEIRKDPNSDNLFKVKIELEKSPDPSVTSAKVITIPPDGSKKVEEKVLESAG [r14_10_JUSTAS]
- folding stability dG unfold [1]: 0.47 ± 0.19 kcal/mol
- folding stability dG unfold [2]: 0.514 ± 0.27 kcal/mol
- folding stability dG unfold [3]: 0.508 ± 0.59 kcal/mol

Sequence: SAMVLRLVVTVTGKIGDSLSTTTITREVSLEEYSEEELEALAEAVADAIRAANPEATVSLSILPEEELESAG [r14_723_JUSTAS]
- folding stability dG unfold [1]: 2.565 ± 0.02 kcal/mol
- folding stability dG unfold [2]: 2.47 ± 0.074 kcal/mol
- folding stability dG unfold [3]: 2.58 ± 0.097 kcal/mol

Sequence: SAMVSVTELPDGGVLATFPLPDGHPATAVFDPADLKPSVAYFPNGLRAVLRVTPDGRVELLAVEDVPPASAG [r14_877_TrMRF]
- folding stability dG unfold [1]: 0.963 ± 0.1 kcal/mol
- folding stability dG unfold [2]: 0.892 ± 0.023 kcal/mol
- folding stability dG unfold [3]: 0.943 ± 0.052 kcal/mol

Sequence: SAMVVTYDPATGKITVNVTLYVEEPLTPEERAALAAAIKAALAAAHPDVDVTVTLHPAPSPEEVEKLAASAG [r14_406_JUSTAS]
- folding stability dG unfold [1]: 2.23 ± 0.058 kcal/mol
- folding stability dG unfold [2]: 2.92 ± 0.14 kcal/mol
- folding stability dG unfold [3]: 2.47 ± 0.12 kcal/mol

Sequence: SAMVYEFPFETEEEAREKAREVLLEKLGASPEEEKVELDIEIEIREDPETGKKLATVTVPKVTVSPKKSSAG [r14_467_JUSTAS]
- folding stability dG unfold [1]: 0.411 ± 0.099 kcal/mol
- folding stability dG unfold [2]: 0.0292 ± 0.11 kcal/mol
- folding stability dG unfold [3]: 0.318 ± 0.086 kcal/mol

Sequence: SAMVYPYLLRVYLPGSGEVVYFPASSLEEAVELLEEVAALPNVNSVDLYTPDGTKVHFLIDVPPEAFEESAG [r14_747_TrMRF]
- folding stability dG unfold [1]: 2.891 ± 0.022 kcal/mol
- folding stability dG unfold [2]: 2.67 ± 0.12 kcal/mol
- folding stability dG unfold [3]: 2.77 ± 0.066 kcal/mol

Sequence: SAMYKIRLKNGEEIELEGMSIEELEKLFPDVELEIEKVEKVPVVKAPSKEEAEELAKKLPPGAKIIVEDSAG [r14_445_TrROS_Hall]
- folding stability dG unfold [1]: 0.233 ± 0.36 kcal/mol
- folding stability dG unfold [2]: 0.287 ± 0.14 kcal/mol
- folding stability dG unfold [3]: 0.324 ± 0.3 kcal/mol

Sequence: SAMYVRITVTFETPDGTRTVTIEIPPSEVEAGKPLSEEELKALAEEIAAKDPNATITEITIERFPESLESAG [r14_373_JUSTAS]
- folding stability dG unfold [1]: 3.865 ± 0.037 kcal/mol
- folding stability dG unfold [2]: 4.29 ± 0.11 kcal/mol
- folding stability dG unfold [3]: 3.99 ± 0.075 kcal/mol

Sequence: SANDAMRKMMENMSPEDMMEMVRPPVPPPPVVTIRVPIEDLPKFLQWLSEEFGVEIEREDGYLYITVTASAG [r14_7_TrROS]
- folding stability dG unfold [1]: 1.48 ± 0.034 kcal/mol
- folding stability dG unfold [2]: 0.623 ± 0.084 kcal/mol
- folding stability dG unfold [3]: 1.22 ± 0.095 kcal/mol

Sequence: SANDKHKYEEEYPYRNPNDPGQPMPFKREREVPVQPPPVITIDADELAKELKEQGEIKIPPDGWIAIPFSAG [r14_582_TrROS]
- folding stability dG unfold [1]: 4.1 ± 0.2 kcal/mol
- folding stability dG unfold [2]: 3.08 ± 0.4 kcal/mol
- folding stability dG unfold [3]: 3.51 ± 0.49 kcal/mol

Sequence: SANIQIMIEDWDPERGWIRISIQVDKGDPDKPITPELVNNIRELFRFRGIEVNIEVHPDGMVNIEIPIPSAG [r14_865_TrROS]
- folding stability dG unfold [1]: 4.59 ± 0.051 kcal/mol
- folding stability dG unfold [2]: 3.39 ± 0.069 kcal/mol
- folding stability dG unfold [3]: 4.14 ± 0.094 kcal/mol

Sequence: SANKNFYIIQIKWEIDGPDGRTLSFMIIVPRDDPDEFLKEAKDFIAEEFGYPIKKIEVDIHRIPPEDFPSAG [r14_104_TrROS]
- folding stability dG unfold [1]: 3.16 ± 0.07 kcal/mol
- folding stability dG unfold [2]: 2.76 ± 0.14 kcal/mol
- folding stability dG unfold [3]: 3.01 ± 0.17 kcal/mol

Sequence: SANMPPGDWKPINIKVKIERPGGKPEFEYPIYKHPDGMIMIFIHFPIPPGAYKIKIEFPGNGKENEFKFSAG [r14_280_TrROS]
- folding stability dG unfold [1]: 2.84 ± 0.09 kcal/mol
- folding stability dG unfold [2]: 1.52 ± 0.058 kcal/mol
- folding stability dG unfold [3]: 2.29 ± 0.32 kcal/mol

Sequence: SANPALYQWVTTDVVLPFETEEEALAAVEALAAARAAATGATVTVSVEVERLPDGLRVRVPVTTLVPLLSAG [r14_626_JUSTAS]
- folding stability dG unfold [1]: 0.984 ± 0.099 kcal/mol
- folding stability dG unfold [2]: 1.05 ± 0.012 kcal/mol
- folding stability dG unfold [3]: 1.05 ± 0.046 kcal/mol

Sequence: SANPGKPVTIEIPVEEIRQKLNEENPDKPLTPSELKDLAKELIQRQGFPFKDVEIKSVNPGNGWIKIKVSAG [r14_303_TrROS]
- folding stability dG unfold [1]: -0.538 ± 0.43 kcal/mol
- folding stability dG unfold [2]: 0.871 ± 0.095 kcal/mol
- folding stability dG unfold [3]: 0.279 ± 0.5 kcal/mol
